The record followed here is patent US20250179208A1 (ZONHON BIOPHARMA INSTITUTE, published 2025).

Assay [1] has as its target CD26 on CD26 positive human tumor cells (human, UniProt P27487 1-766). The assay can be described thus: cell-based or functional assay.
Another assay deals with T1, CD3 protein.
T1 chain 1: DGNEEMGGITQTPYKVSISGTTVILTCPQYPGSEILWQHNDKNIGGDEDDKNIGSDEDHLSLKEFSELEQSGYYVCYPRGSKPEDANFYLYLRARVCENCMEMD
T1 chain 2: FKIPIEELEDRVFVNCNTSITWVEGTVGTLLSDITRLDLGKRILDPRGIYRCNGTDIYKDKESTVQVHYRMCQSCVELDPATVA
The assay can be described thus: BLI (Octet), biotinylated CD3 on SA sensor, antibody 200-1600 nM. On the procedure:
CD3 protein was biotinylated with EZ-link NHS-PEG12-Biotin. Biotinylated CD3 protein was immobilized to SA biosensor. Equilibrated in 1×Kinetics solution. The CD3 immobilized to SA biosensor was combined with the humanized bispecific antibody solution to be detected. The concentration gradient of humanized bispecific antibody was 200 nM, 400 nM, 800 nM, and 1600 nM. The biosensor was dissociated in 1×Kinetics solution. Fortebio Data Analysis 8.0 software was used for data analysis and affinity constant values were calculated.

Assay [2] concerns the target T2, CD26 protein (recombinant human CD26) (human, UniProt P27487 29-766, limits assumed).
T2 construct: Amine-coupled, biotinylated or HRP-labeled according to the assay; also called DPP4; rCD26
The experiment in a line: BLI (Octet), biotinylated CD26 on SA sensor, antibody 31.3-500 nM. On the procedure: CD26 protein was biotinylated with EZ-link NHS-PEG12-Biotin. Biotinylated CD26 protein was immobilized to SA biosensor. Equilibrated in 1×Kinetics solution. The CD26 immobilized to SA biosensor was combined with the antibody solution to be detected. The concentration gradients of the antibody solution were 31.3 nM, 62.5 nM, 125 nM, 250 nM, and 500 nM. The biosensor was dissociated in 1×Kinetics solution. Fortebio Data Analysis 8.0 software was used for data analysis and affinity constant values were calculated.
A general note: In BLI a coated tip is dipped into the sample, and binding shifts an interference pattern.

The target in assay [3] is T2, CD26 protein (recombinant human CD26). The experiment in a line: BLI (Octet QKe), CD26 amine-coupled on AR2G sensor, antibody at 181.8 nM. On the procedure:
The affinity of the chimeric antibody to the antigen protein CD26 was detected by Fortebio Intermolecular Interaction Octet QKe instrument. First, the amino-coupled biosensor AR2G was activated with EDC/s-NHS, and the activated biosensor AR2G was solidified in CD26 protein solution diluted with 10 mM sodium acetate (pH 5.0) solution. The biosensor solidified with CD26 was quenched in 1M ethanolamine (pH8.5) solution. Then equilibrated in 1× kinetic solution. After equilibration, it was bound to a humanized bispecific antibody solution. It was dissociated in 1× kinetic solution. Fortebio Data Analysis 8.0 software was used to analyze the data and calculate the affinity constant (KD), association rate constant (kon) and dissociation rate constant (kdis). The Response value represents the number of antibody molecules that can bind to the antigen. Kon indicates the binding speed of the antibody to the corresponding receptor. Kdis represents the dissociation speed of antibody from corresponding receptor. NA indicates no valid data.

B1: 17G29 (anti-CD26-CD3 humanized bispecific antibody derived from YS110) (bispecific antibody)
chain: EVQLVESGAGVKQPGGTLRLTCTASGFSLTTYGVHWVRQAPGKGLEWVGVIWGDGRTDYDAAFMSRVTISKDTSKSTVYLQMNSLRAEDTAVYYCMRNRHDWFDYWGQGTTVTVSSGGGGSGGGGSGGGGSDILLTQSPSSLSATPGERATITCRASQGIRNNLNWYQQKPGQAPRLLIYYSSNLQSGVPSRFSGSGSGTDFTLTISRLQPEDVAAYYCQQSIKLPFTFGSGTKVEIKGGGGSDVQLVQSGAEVKKPGASVKVSCKASGYTFTRYTMHWVRQAPGQGLEWIGYINPSRGYTNYADSVKGRFTITTDKSTSTAYMELSSLRSEDTATYYCARYYDDHYCLDYWGQGTTVTVSSGGGGSGGGGSGGGGSDIVLTQSPATLSLSPGERATLSCRASQSVSYMNWYQQKPGKAPKRWIYDTSKVASGVPARFSGSGSGTDYSLTINSLEAEDAATYYCQQWSSNPLTFGGGTKVEIK
notes: also called positive control
One may read the Kd as the equilibrium constant for the complex coming apart. Usually koff stands for a measure of how fast the partners let go of each other. The kon is the second-order rate constant of association. On to B1, for which, in assay [1], the “IC50 of antibody mediated PBMC cytotoxicity against 786-0 cells” value (shortened to “IC50 … against 786-0 cells”) is 1.03 ng/mL, the “IC50 of antibody mediated PBMC cytotoxicity against NCI-H226 cells” value (“IC50 … against NCI-H226 cells” below) is 0.918 ng/mL, the “IC50 of antibody mediated PBMC cytotoxicity against OS-RC-2 cells” value (“IC50 … against OS-RC-2 cells” for short) came to 0.958 ng/mL and the “IC50 of antibody mediated PBMC cytotoxicity against PC-3 cells” value (“IC50 … against PC-3 cells” for short) turned out to be 1.14 ng/mL. Also, the affinity with CD3 protein, expressed as Kd, was 12.2 nM. In addition, in assay [2], the Kd was 1.18 nM, the koff came out at 0.000216 s⁻¹ and the kon was 183000 M⁻¹ s⁻¹.

B2: 19G293 (anti-CD26-CD3 humanized bispecific antibody derived from No. 62 mouse antibody) (bispecific antibody)
chain: QVQLVQSGAELVKPGASVKLSCKASGFNIKDTYIYWVRQAPGQGLEWIGRIEPMNGNTKYDPKFQGRVTMTANTSINTAYLELSSLRSEDTAVYYCSRGGWLLLYVMDYWGQGTLVTVSSGGGGSGGGGSGGGGSDIVMTQSPLSLSVTPGEPASISCRSDKSLLHSNGNTYLYWFLQKPGQSPQVLIYRMSNLASGVPDRFSGSGSGTDFTLKISRVEAEDVGVYYCFQQLEYPYTFGQGTKLEIKGGGGSDVQLVQSGAEVKKPGASVKVSCKASGYTFTRYTMHWVRQAPGQGLEWIGYINPSRGYTNYADSVKGRFTITTDKSTSTAYMELSSLRSEDTATYYCARYYDDHYCLDYWGQGTTVTVSSGGGGSGGGGSGGGGSDIVLTQSPATLSLSPGERATLSCRASQSVSYMNWYQQKPGKAPKRWIYDTSKVASGVPARFSGSGSGTDYSLTINSLEAEDAATYYCQQWSSNPLTFGGGTKVEIK
With B2, in assay [1], the “IC50 … against 786-0 cells” value is 0.974 ng/mL, the “IC50 … against NCI-H226 cells” value turned out to be 0.405 ng/mL, the “IC50 … against OS-RC-2 cells” value was 2.25 ng/mL and the “IC50 … against PC-3 cells” value is 0.565 ng/mL. In the assay with CD3 protein, this molecule displayed a Kd of 1.73 nM, a koff of 0.000571 s⁻¹ and a kon of 331000 M⁻¹ s⁻¹. Also, in assay [2], the Kd was below 0.001 nM and the kon is 54600 M⁻¹ s⁻¹.

B3: 17G131 (anti-CD26-CD3 chimeric bispecific antibody derived from No. 51 mouse antibody) (bispecific antibody)
chain: DIQMTQSPASLSASVGESVTITCRASENIYSYLTWYQQKQGKSPQLLVYNAKTLTEDVPSRFSGSGSGTQFSLKINSLQPEDFGSYYCQHHYGSPRTFGGGTKLEIKGGGGSGGGGSGGGGSQAQLQQSGAELMKPGASVKISCKATGYTFSNFWIEWVVQRPGHGLEWIGEILPGRGTTNYNEKFRGKATFTADTSSDTAYIQLSSLTSEDSAVYYCARERFYGSKYFDVWGAGTTVTVSSGGGGSDVQLVQSGAEVKKPGASVKVSCKASGYTFTRYTMHWVRQAPGQGLEWIGYINPSRGYTNYADSVKGRFTITTDKSTSTAYMELSSLRSEDTATYYCARYYDDHYCLDYWGQGTTVTVSSGGGGSGGGGSGGGGSDIVLTQSPATLSLSPGERATLSCRASQSVSYMNWYQQKPGKAPKRWIYDTSKVASGVPARFSGSGSGTDYSLTINSLEAEDAATYYCQQWSSNPLTFGGGTKVEIK
notes: also called chimeric BiTE
Turning to B3, in assay [3], the equilibrium dissociation constant (Kd) turned out to be 43.6 nM, the Response is 0.15, the koff amounted to 0.000829 s⁻¹ and the kon came out at 19000 M⁻¹ s⁻¹.

B4: 19G292 (anti-CD26-CD3 humanized bispecific antibody derived from No. 62 mouse antibody) (bispecific antibody)
chain: QVQLLQSGAEVVKPGASVKISCKASGFNIKDTYIYWVKQPTGQGLEWIGRIEPMNGNTKYDPKFQGRFTMTANTSINTAYLQLSSLTSEDTAVYYCSRGGWLLLYVMDYWGQGTTVTVSSGGGGSGGGGSGGGGSDIVMTQSASSLPVTPGESVSISCRSDKSLLHSNGNTYLYWFLQRPGQSPQVLIYRMSNLASGVPDRFSGSGSGTEFTLTISRVEAEDVGVYYCFQQLEYPYTFGPGTKLEIKGGGGSDVQLVQSGAEVKKPGASVKVSCKASGYTFTRYTMHWVRQAPGQGLEWIGYINPSRGYTNYADSVKGRFTITTDKSTSTAYMELSSLRSEDTATYYCARYYDDHYCLDYWGQGTTVTVSSGGGGSGGGGSGGGGSDIVLTQSPATLSLSPGERATLSCRASQSVSYMNWYQQKPGKAPKRWIYDTSKVASGVPARFSGSGSGTDYSLTINSLEAEDAATYYCQQWSSNPLTFGGGTKVEIK
In the case of B4, in assay [1], the “IC50 … against 786-0 cells” value was found to be 0.805 ng/mL, the “IC50 … against NCI-H226 cells” value amounted to 1.1 ng/mL, the “IC50 … against OS-RC-2 cells” value was 1.04 ng/mL and the “IC50 … against PC-3 cells” value worked out at 0.339 ng/mL. In the assay with CD3 protein, this molecule returned a Kd of 0.568 nM, a koff of 0.000107 s⁻¹ and a kon of 188000 M⁻¹ s⁻¹. For the same molecule, in assay [2], the Kd was below 0.001 nM and the kon was found to be 65800 M⁻¹ s⁻¹.

B5: 18G272 (anti-CD26-CD3 humanized bispecific antibody derived from No. 62 mouse antibody) (bispecific antibody)
chain: DIVMTQSASSLPVTPGEPASISCRSDKSLLHSNGNTYLYWFLQKPGQSPQVLIYRMSNLASGVPDRFSGSGSGTDFTLTISRVEAEDVGVYYCFQQLEYPYTFGQGTKLEIKGGGGSGGGGSGGGGSQVQLVQSGAEVVKPGASVKISCKASGFNIKDTYIYWVRQRTGQGLEWIGRIEPMNGNTKYDPKFQGRLTMTANTSKNTAYLQLSSLTSEDTAVYYCSRGGWLLLYVMDYWGQGTTVTVSSGGGGSDVQLVQSGAEVKKPGASVKVSCKASGYTFTRYTMHWVRQAPGQGLEWIGYINPSRGYTNYADSVKGRFTITTDKSTSTAYMELSSLRSEDTATYYCARYYDDHYCLDYWGQGTTVTVSSGGGGSGGGGSGGGGSDIVLTQSPATLSLSPGERATLSCRASQSVSYMNWYQQKPGKAPKRWIYDTSKVASGVPARFSGSGSGTDYSLTINSLEAEDAATYYCQQWSSNPLTFGGGTKVEIK
Consider B5, for which, in assay [1], the “IC50 … against 786-0 cells” value was 2.27 ng/mL, the “IC50 … against NCI-H226 cells” value stood at 0.143 ng/mL, the “IC50 … against OS-RC-2 cells” value came to 0.284 ng/mL and the “IC50 … against PC-3 cells” value turned out to be 0.379 ng/mL.

B6: 19G296 (anti-CD26-CD3 humanized bispecific antibody derived from No. 212 mouse antibody) (bispecific antibody)
chain: QVQLQESGPGLVKPSETLSLTCTVSGDSITSGYWHWIRQPPGKGLEWIGYINYSGYTYYNPSLKSRFTISRDTSKNQYYLQLNSVTAEDTAVYYCTSERNWGAFAYWGQGTLVTVSSGGGGSGGGGSGGGGSENVLTQSPATLSASPGERATLSCRASSSVISTYLHWYQQKPGQAPKLWIYSTSNLASGVPARFSGSGSGTDYTLTISSVEPEDFAVYYCQQFSGYPYTFGQGTKLEIKGGGGSDVQLVQSGAEVKKPGASVKVSCKASGYTFTRYTMHWVRQAPGQGLEWIGYINPSRGYTNYADSVKGRFTITTDKSTSTAYMELSSLRSEDTATYYCARYYDDHYCLDYWGQGTTVTVSSGGGGSGGGGSGGGGSDIVLTQSPATLSLSPGERATLSCRASQSVSYMNWYQQKPGKAPKRWIYDTSKVASGVPARFSGSGSGTDYSLTINSLEAEDAATYYCQQWSSNPLTFGGGTKVEIK
In the assay with CD3 protein, B6 came in with a dissociation constant (Kd) of 9.67 nM, a koff of 0.00225 s⁻¹ and a kon of 233000 M⁻¹ s⁻¹. In addition, in assay [2], the Kd is 14.8 nM, the dissociation rate constant (koff) worked out at 0.0014 s⁻¹ and the kon stood at 94500 M⁻¹ s⁻¹.

B7: 19G297 (anti-CD26-CD3 humanized bispecific antibody derived from No. 212 mouse antibody) (bispecific antibody)
chain: EVQLQESGPGLVKPSGTLSLTCAVSGDSITSGYWHWIRQAPGKGLEWVGYINYSGYTYYNPSLKSRFTISRDTSKNQYYLQLNSVTAEDTAVYYCTSERNWGAFAYWGQGTLVTVSSGGGGSGGGGSGGGGSENVLTQSPASLSASPGERVTITCRASSSVISTYLHWYQQKPGQAPKLWIYSTSNLASGVPARFSGSGSGTDYTLTISSVEPEDFATYYCQQFSGYPYTFGQGTKLEIKGGGGSDVQLVQSGAEVKKPGASVKVSCKASGYTFTRYTMHWVRQAPGQGLEWIGYINPSRGYTNYADSVKGRFTITTDKSTSTAYMELSSLRSEDTATYYCARYYDDHYCLDYWGQGTTVTVSSGGGGSGGGGSGGGGSDIVLTQSPATLSLSPGERATLSCRASQSVSYMNWYQQKPGKAPKRWIYDTSKVASGVPARFSGSGSGTDYSLTINSLEAEDAATYYCQQWSSNPLTFGGGTKVEIK
In the case of B7, in the assay with CD3 protein, the Kd came out at 10.1 nM, the off-rate constant (koff) turned out to be 0.00367 s⁻¹ and the kon amounted to 362000 M⁻¹ s⁻¹. For the same molecule, in assay [2], the Kd came out at 4.4 nM, the koff turned out to be 0.00037 s⁻¹ and the kon stood at 91800 M⁻¹ s⁻¹.
